Test in all cases: yeast two-hybrid (LexA-KMD bait, B42-ARR prey, X-gal)
The target in one assay is T1, ARR12 (Arabidopsis, UniProt P62598 1-596).
T1 construct: YFP^N or YFP^C fusion of the full-length cDNA in BiFC; also called AtARR12; type-B response regulator AtARR12
T1 sequence (looked up): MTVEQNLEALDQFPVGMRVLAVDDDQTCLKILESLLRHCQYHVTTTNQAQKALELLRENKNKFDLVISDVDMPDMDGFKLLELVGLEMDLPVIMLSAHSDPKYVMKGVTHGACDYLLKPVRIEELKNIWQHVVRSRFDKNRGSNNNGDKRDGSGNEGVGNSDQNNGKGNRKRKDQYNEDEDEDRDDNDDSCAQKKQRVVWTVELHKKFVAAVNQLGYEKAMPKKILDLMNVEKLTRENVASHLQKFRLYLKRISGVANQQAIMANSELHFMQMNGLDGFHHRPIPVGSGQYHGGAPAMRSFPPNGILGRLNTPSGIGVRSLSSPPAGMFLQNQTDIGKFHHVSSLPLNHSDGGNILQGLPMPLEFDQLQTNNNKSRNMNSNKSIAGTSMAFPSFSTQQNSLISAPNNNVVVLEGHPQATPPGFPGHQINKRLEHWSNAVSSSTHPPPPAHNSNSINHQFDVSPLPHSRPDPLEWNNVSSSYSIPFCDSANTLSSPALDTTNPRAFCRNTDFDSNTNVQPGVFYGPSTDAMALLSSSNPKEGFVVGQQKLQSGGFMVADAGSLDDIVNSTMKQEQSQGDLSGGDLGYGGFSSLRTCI
The source says: (§1) The DUPLEX-A™ system (OriGene Technologies) was used for yeast two-hybrid analysis of interactions. KMD cDNAs were cloned into the pGilda bait vector, which produces an in-frame fusion with the LexA DNA-binding domain. Type-B ARR coding sequences were cloned into the pJG4-5 prey vector, which produces a B42 activation domain. The yeast strain EGY48 (MATa, trp1, his3, ura3, leu2::6 LexAop-LEU2) that contains the lacZ reporter plasmid pSH18-34 was transformed with the appropriate “bait” and “prey” plasmids. Interactions were tested on 5-bromo-4-chloro-3-indolyl-p-D-galactopyranoside (X-gal) medium (Ryu, et al. (2005) Cell 120(3): 395-406).
(§2) The KMD proteins also interacted with ARR20 (type-B ARR subfamily-3), but not with ARR19 (subfamily-2) and ARR21 (subfamily-3). […] All four KMD proteins interacted with both ARR1 and ARR12 in a BiFC assay. Strong fluorescence was detected in the nuclei of cells, consistent with the subcellular localization of the type-B ARRs (Hwang & Sheen J (2001) Nature 413(6854):383-389; Mason, et al. (2004) Plant Physiol. 135(2):927-937).

A further assay deals with T2, ARR10 (Arabidopsis, UniProt O49397 1-552, limits assumed).
T2 construct: also called type-B response regulator ARR10
T2 sequence (looked up): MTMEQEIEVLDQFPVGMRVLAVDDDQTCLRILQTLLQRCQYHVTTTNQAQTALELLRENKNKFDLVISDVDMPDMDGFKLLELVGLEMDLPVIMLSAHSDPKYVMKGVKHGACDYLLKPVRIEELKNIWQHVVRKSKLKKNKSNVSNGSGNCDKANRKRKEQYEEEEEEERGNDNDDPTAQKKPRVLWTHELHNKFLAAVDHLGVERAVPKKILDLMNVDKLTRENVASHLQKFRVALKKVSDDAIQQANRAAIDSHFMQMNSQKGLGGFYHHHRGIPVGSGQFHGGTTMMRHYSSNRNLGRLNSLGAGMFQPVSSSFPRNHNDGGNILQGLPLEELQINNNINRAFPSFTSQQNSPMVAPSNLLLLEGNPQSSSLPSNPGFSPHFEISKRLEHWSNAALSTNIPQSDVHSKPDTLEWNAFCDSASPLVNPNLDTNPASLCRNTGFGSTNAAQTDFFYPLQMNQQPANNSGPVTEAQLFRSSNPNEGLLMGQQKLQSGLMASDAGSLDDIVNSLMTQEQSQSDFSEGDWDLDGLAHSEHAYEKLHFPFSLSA
Description: as §1, §2

Assay [1] concerns the target T3, ARR20 (type-B ARR subfamily-3) (Arabidopsis, UniProt Q9LZJ8 1-426, limits assumed).
T3 sequence (looked up): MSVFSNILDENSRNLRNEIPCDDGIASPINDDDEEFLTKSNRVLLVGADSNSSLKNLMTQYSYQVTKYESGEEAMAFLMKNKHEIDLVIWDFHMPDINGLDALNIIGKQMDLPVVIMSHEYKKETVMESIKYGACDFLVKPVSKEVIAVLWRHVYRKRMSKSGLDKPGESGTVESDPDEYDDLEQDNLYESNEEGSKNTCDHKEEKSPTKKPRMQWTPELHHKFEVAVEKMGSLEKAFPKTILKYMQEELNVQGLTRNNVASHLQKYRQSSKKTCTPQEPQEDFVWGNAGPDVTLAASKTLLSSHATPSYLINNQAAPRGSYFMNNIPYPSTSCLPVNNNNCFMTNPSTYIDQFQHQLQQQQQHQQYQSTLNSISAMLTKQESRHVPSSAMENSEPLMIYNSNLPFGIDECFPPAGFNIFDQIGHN
Description: as §1, §2

A further assay deals with T4, ARR19 (subfamily-2) (Arabidopsis, UniProt Q9M9B9 1-407, limits assumed).
T4 sequence (looked up): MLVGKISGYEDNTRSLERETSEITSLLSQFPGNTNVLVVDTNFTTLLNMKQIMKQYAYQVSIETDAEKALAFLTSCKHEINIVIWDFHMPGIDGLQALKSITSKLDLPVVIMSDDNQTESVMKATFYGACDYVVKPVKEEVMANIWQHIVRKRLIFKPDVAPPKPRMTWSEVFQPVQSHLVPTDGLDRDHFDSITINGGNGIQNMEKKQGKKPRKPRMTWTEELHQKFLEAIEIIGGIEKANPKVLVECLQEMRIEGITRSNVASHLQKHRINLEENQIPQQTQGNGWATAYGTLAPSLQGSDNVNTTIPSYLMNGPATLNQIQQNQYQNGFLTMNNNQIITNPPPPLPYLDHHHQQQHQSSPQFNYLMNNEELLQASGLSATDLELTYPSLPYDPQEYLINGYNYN
Description: as §1, §2

B1: KISS ME DEADLY 2 (KMD2) (other, Arabidopsis, UniProt Q9LMR5 1-359, looked up)
chain: MELIPDLPETVAYECLLRSSYKQFPLMASVCKLWQREISLSDFFRHRKASGHSQELVVLSQARVDPVKELVSGNKTIPTPVYRISVLELGTGLRSELPPVPGHSNGLPLFCRLVSVGSDLVVLCGLDPVTWRTSDSVFVFSFLTSTWRVGKSMPGGPRSFFACASDSQRNVFVAGGHDEDKNAMMSALVYDVAEDRWAFLPDMGRERDECTAIFHAGKFHVIGGYSTEEQGQFSKTAESFDVTTWRWSPQGEEFLSSEMTMWPPICAAGENGDLYACCRRDLMMMKDDTWYKVGNLPADVCNVSYVAIRRSGNLVVIGSARYGEPSVGYNWDMSNSRWLKLETHDKYEGHVQAGCFLEI
notes: Full-length protein; LexA fusion in yeast two-hybrid, YFP^N or YFP^C fusion in BiFC; also called At1g15670
As for B1, the binding result with ARR12 is given as “binds”; with ARR10 it was “binds”; in assay [1], “binds”; with ARR19 (subfamily-2), “no binding”.

B2: KISS ME DEADLY 1 (KMD1) (other, Arabidopsis, UniProt Q9M8L2 1-354, looked up)
chain: MELIPNLPDDVARECLLRSSYQQFPVIASVCRAWNREVSLSQFLHQRKASRHSQELLILSQARVDPAGSGKIIATPEYRISVLESGSGLWTELPPIPGQTKGLPLFCRLVSVGSDLIVLGGLDPITWQAHDSVFVFSFLTSKWRVGATMPGVRRSFFGCASDSDRTVLVAGGHNEEKCALTSAMVYDVSEDKWTFLPDMARERDECKAVFHAGRFHVIGGYATEEQGQFSKTAESFDVSTWEWGPLTEDFLDDTGDTVSPPTCVAGGDLYACWGGDVMMFLNDKWQKVGQIPADVYNVTYVAVRPGMLIVIGNGKALAGYGEATVGYICDLSSSRWVKLETHGGHVQAGCFLEV
notes: Full-length protein; also called At1g80440
Consider B2, for which the binding result with ARR12 is “binds”; with ARR10, “binds”; in assay [1] it was “binds”; in the assay with ARR19 (subfamily-2), “no binding”.

(Values after patent US20160289698A1 (TRUSTEES OF DARTMOUTH COLLEGE, published 2016).)
